From article PMC4731787, “Structural basis for the recognition of two consecutive mutually interacting DPF motifs by the SGIP1 μ homology domain” (Scientific Reports, 2016)
Like-named read-outs stand apart in the source and are kept apart here. Each block holds one molecule with its values, some of them ahead of it. Where no end group is shown, it is not given here. GST = glutathione S-transferase fusion tag

Experiments:
[1] = target: T1, SGIP1 μHD (residues 552 to 828) (Homo sapiens, UniProt Q9BQI5); test: ITC of Eps15 fragments with the SGIP1 μHD; format: binding; conditions: for Kd: 50 mM Tris-HCl pH 8.0, 50 mM NaCl, global fit of two runs
T1 construct: the SGIP1 μHD (residues 552 to 828); GST (N, cleaved yes); made in house; host or cells: Escherichia coli BL21-Gold (DE3) or Rosetta2
T1 sequence (Q9BQI5 552-828): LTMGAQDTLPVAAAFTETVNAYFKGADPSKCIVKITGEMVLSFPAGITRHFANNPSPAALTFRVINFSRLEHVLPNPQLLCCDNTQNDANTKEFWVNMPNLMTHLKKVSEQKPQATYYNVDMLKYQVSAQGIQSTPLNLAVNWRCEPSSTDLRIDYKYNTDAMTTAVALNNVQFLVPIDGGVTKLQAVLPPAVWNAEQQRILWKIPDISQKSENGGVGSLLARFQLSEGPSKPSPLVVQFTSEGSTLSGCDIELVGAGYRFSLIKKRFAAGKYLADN
Experimental: (§1) For the majority of the ITC experiments, the SGIP1 μHD, its mutants, or the FCHo1 μHD, in 50 mM Tris-HCl buffer (pH 8.0) containing 50 mM NaCl, was loaded in the sample cell, in a volume of 1.42 ml, and titrated with various Eps15-derived fragments or peptides in the same buffer, with an initial 5 μl injection and subsequent 10 μl injections, for a total of 25 injections. The titrations were performed while the samples were stirred at 310 r.p.m. at 25 °C. Each injection was followed by an interval of 4 min, to allow baseline stabilization. For the other ITC experiments indicated in Supplementary Table 2, the Eps15-derived fragments or peptides in the sample cell were titrated with the SGIP1 or FCHo1 μHD. All ITC experiments were performed on a VP-ITC microcalorimeter (MicroCal, LLC) and repeated twice, and the data were processed with the program NITPIC[42]. The two data sets from each ITC experiment were analyzed by global weighted least-squares fitting with the program SEDPHAT[43]. Figures for the ITC data were created with the program GUSSI (http://biophysics.swmed.edu/MBR/software.html). To obtain the values of the traditional stoichiometric parameter N in our ITC data analyses (Supplementary Table 2), we used the values of the parameters of the incompetent fractions of proteins and ligands. […] The values of the incompetent fractions are between 0 and 1, whereas the other parameter affecting the traditional parameter N, the number of sites, was fixed as 1 and 2, for the single- and two-site models, respectively. Thus, in the two-site model, the values of N for the first and second sites are identical in our ITC data analyses (Supplementary Table 2).

[2] = target: T2, FCHo1 µHD (residues 623 to 889) (Homo sapiens, UniProt O14526); test: ITC of Eps15 fragments with the FCHo1 μHD; format: binding; conditions: for Kd / -TΔS / ΔG / ΔH: 25 °C; for Kd: 50 mM Tris-HCl pH 8.0, 50 mM NaCl, global fit of two runs; for Kd / -TΔS / ΔG / ΔH / N (binding ratio of Eps15 fragment to FCHo1 μHD): single-site model; for Kd / ΔH / N (binding ratio of Eps15 fragment to FCHo1 μHD): ± 68.3% confidence interval
T2 construct: GST (N, cleaved yes); made in house; host or cells: Escherichia coli (as for the SGIP1 μHD)
T2 sequence (O14526 623-889): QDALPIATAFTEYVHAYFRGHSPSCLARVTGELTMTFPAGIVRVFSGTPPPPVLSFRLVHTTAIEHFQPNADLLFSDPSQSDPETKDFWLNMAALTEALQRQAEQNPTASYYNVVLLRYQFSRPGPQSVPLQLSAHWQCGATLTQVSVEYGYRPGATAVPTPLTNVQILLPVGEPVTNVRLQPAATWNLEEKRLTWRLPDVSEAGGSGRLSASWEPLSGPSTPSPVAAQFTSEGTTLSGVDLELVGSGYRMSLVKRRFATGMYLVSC
Experimental: as §1

[3] = target: α-adaptin appendage domain (residues 711 to 955); test: ITC of Eps15 fragments with the α-adaptin appendage domain; format: binding, human
[4] = target: appendage domain of human α-adaptin, residues 711 to 955 (human) (UniProt O95782); test: ITC; µHD, µHD mutant or α-adaptin appendage domain in the sample cell, titrated with the Eps15 fragment or peptide; 50 mM Tris-HCl (pH 8.0), 50 mM NaCl, 25 °C; VP-ITC; two data sets fitted globally (NITPIC, SEDPHAT); single-site model
[5] = target: T3, SGIP1 µ homology domain (µHD), residues 552 to 828 (human, UniProt Q9BQI5-1 552-828); test: as above; conditions: both partners purified
T3 construct: pGEX-6P-1 construct cut with 3C protease; also called SGIP1 µHD; human SGIP1 µHD (aa552–828); source: E. coli BL21-Gold (DE3) or Rosetta2, purified (Glutathione Sepharose 4B, 3C protease cleavage, Superdex 200)
T3 sequence (looked up): T1 sequence (Q9BQI5 552-828)

[6] = target: T4, SGIP1 μ homology domain (residues 552 to 828) (human, UniProt Q9BQI5-1 552-828); test: ITC; VP-ITC, 25 °C, 50 mM Tris-HCl pH 8.0, 50 mM NaCl; for the majority the μHD (SGIP1, its mutants or FCHo1) in the cell, titrated with Eps15 fragments or peptides, for others the reverse (Supplementary Table 2); repeated twice, global fit with SEDPHAT, single-site or two-site model; conditions: both partners purified
T4 construct: A SeMet-substituted form (E. coli B834(DE3)) was used only for the structure of the domain alone; also called SGIP1 μHD; μHD; source: E. coli BL21-Gold (DE3) or Rosetta2, purified (Glutathione Sepharose, 3C protease cleavage on the column, Superdex 200)
T4 sequence (looked up): T1 sequence (Q9BQI5 552-828)

[7] = target: T5, FCHo1 µ homology domain (µHD), residues 623 to 889 (human, UniProt O14526-1 623-889); test: ITC; µHD, µHD mutant or α-adaptin appendage domain in the sample cell, titrated with the Eps15 fragment or peptide; 50 mM Tris-HCl (pH 8.0), 50 mM NaCl, 25 °C; VP-ITC; two data sets fitted globally (NITPIC, SEDPHAT); single-site model; conditions: both partners purified
T5 construct: also called FCHo1 µHD; human FCHo1 µHD (aa623–889); source: E. coli, expressed and purified in the same manner as the SGIP1 µHD
T5 sequence (looked up): T2 sequence (O14526 623-889)

[8] = 25 °C, fragment in cell titrated with μHD, single-site model
[9] = 25 °C, fragment in cell titrated with μHD, two-site model, first site
[10] = 25 °C, fragment in cell titrated with μHD, two-site model, second site
[11] = FCHo1 μHD in cell titrated with fragment
[12] = fragment in cell titrated with μHD (Experiment 37a)

Molecule: Eps15-618–654: Eps15 fragment, 37-residue region containing six consecutive DPF motifs; high-affinity binding site (DFFQSDPFVGSDPFKDDPFGKIDPFGGDPFKGSDPFA; UniProt P42566 618-654, looked up, fragment)
Kd ([1]; 25 °C, Eps15 fragment in cell titrated with SGIP1 μHD, two-site model, second site, 68.3% confidence interval, read-out: Kd, second site): 55500 nM
Kd ([1]; 25 °C, Eps15 fragment in sample cell titrated with SGIP1 μHD, single-site model, ± 68.3% confidence interval, read-out: Kd): 420 ± 250 nM
-TΔS [1, 8]: 0.278 kcal/mol
ΔG [1, 8]: -8.704 kcal/mol
ΔH ([1]; 25 °C, fragment in cell titrated with μHD, single-site model, ± 68.3% confidence interval): -8.982 ± 0.639 kcal/mol
-TΔS [1, 9]: -2.345 kcal/mol
ΔG [1, 9]: -9.805 kcal/mol
ΔH ([1]; 25 °C, fragment in cell titrated with μHD, two-site model, first site, ± 68.3% confidence interval): -7.46 ± 0.168 kcal/mol
-TΔS, second site [1, 10]: 3.722 kcal/mol
ΔG, second site [1, 10]: -5.906 kcal/mol
ΔH, second site ([1]; 25 °C, fragment in cell titrated with μHD, two-site model, second site, 68.3% confidence interval): -9628 (< -6103) cal/mol
N (binding ratio of Eps15 fragment to μHD) ([1]; fragment in cell titrated with μHD, single-site model, ± 68.3% confidence interval): 0.81 ± 0.04
N (binding ratio of Eps15 fragment to μHD) ([1]; fragment in cell titrated with μHD, two-site model, first site (N identical for both sites), ± 68.3% confidence interval): 0.88 ± 0.02
N, second site ([1]; fragment in cell titrated with μHD, two-site model, second site (N identical for both sites), ± 68.3% confidence interval): 0.88 ± 0.02
Strength of affinity ([1]; human SGIP1 µHD (aa552–828), Supplementary Table 3, This study): high
Kd for the FCHo1 μHD (in words) [2]: in the nanomolar range
Kd ([2]; Eps15 fragment in cell titrated with μHD (Experiment 37a)): 190 ± 90 nM
Kd [2, 11]: 270 ± 100 nM
-TΔS [2, 11]: 0.672 kcal/mol
ΔG [2, 11]: -8.966 kcal/mol
ΔH [2, 11]: -9.638 ± 0.381 kcal/mol
-TΔS [2, 12]: -1.572 kcal/mol
ΔG [2, 12]: -9.158 kcal/mol
ΔH [2, 12]: -7.586 ± 0.398 kcal/mol
N (binding ratio of Eps15 fragment to FCHo1 μHD) [2, 11]: 0.59 ± 0.02
N (binding ratio of Eps15 fragment to FCHo1 μHD) [2, 12]: 0.70 ± 0.03
Strength of affinity ([2]; human FCHo1 µHD (aa623–889), Supplementary Table 3, This study): high

Molecule: Eps15-661–720: Eps15 fragment spanning residues 661 to 720, 4 DPF motifs (QSTDPFATSSTDPFSAANNSSITSVETLKHNDPFAPGGTVVAASDSATDPFASVFGNESF; UniProt P42566 661-720, looked up, fragment)
Kd for the α-adaptin appendage domain (in words) [3]: in the nanomolar range
Kd ([3]; 25 °C, appendage domain titrated with Eps15 fragment, single-site model, global fit of two runs, ± 68.3% confidence interval): 270 ± 130 nM
-TΔS ([3]; 25 °C, single-site model): 5.961 kcal/mol
ΔG ([3]; 25 °C, single-site model): -8.97 kcal/mol
ΔH ([3]; 25 °C, single-site model, ± 68.3% confidence interval): -14.931 ± 1.892 kcal/mol

B1: Eps15-661–720 (domain or fragment)
chain: GPLGSYQSTDPFATSSTDPFSAANNSSITSVETLKHNDPFAPGGTVVAASDSATDPFASVFGNESF
Kd [4]: 270 nM
stoichiometry N [4]: 0.47

B2: Eps15-628–654 (peptide)
peptide: Ac-YSDPFKDDPFGKIDPFGGDPFKGSDPFA-NH2
notes: artificial N-terminal Tyr; source: synthetic peptide (Eurofins Genomics)
stoichiometry N [5]: 0.67

B5: Eps15-661–790 (domain or fragment)
chain: GPLGSYQSTDPFATSSTDPFSAANNSSITSVETLKHNDPFAPGGTVVAASDSATDPFASVFGNESFGGGFADFSTLSKVNNEDPFRSATSSSVSNVVITKNVFEETSVKSEDEPPALPPKIGTPTRPCPLPPGKRSW
Kd [4]: 690 nM
stoichiometry N [4]: 1.19

B7: Eps15-618–648 (domain or fragment, human, UniProt P42566-1 618-648, looked up)
chain: DFFQSDPFVGSDPFKDDPFGKIDPFGGDPFK
notes: source: E. coli, purified in the same manner as for the SGIP1 μHD
Kd [6]: ~400 nM

B8: Eps15-640–654 (peptide)
peptide: Ac-YDPFGGDPFKGSDPFA-NH2
notes: as for B2
Kd [5]: 2900 nM
stoichiometry N [5]: 0.66
stoichiometry N [7]: 0.64

Further lines, results first:

Kd [5]: 1000 nM
stoichiometry N [5]: 0.86
B3: GST-Eps15-628–654 (domain or fragment, human)
chain: {GST}-SDPFKDDPFGKIDPFGGDPFKGSDPFA
notes: source: E. coli, purified (Glutathione Sepharose 4B, glutathione elution, Superdex 200); not shown: GST, N-terminal, kept

Kd [5]: 650 nM
stoichiometry N [5]: 0.92
B4: GST-Eps15-628–644 (domain or fragment, human)
chain: {GST}-SDPFKDDPFGKIDPFGG
notes: as for B3

Kd [5]: 125000 nM
B6: Eps15-662–676 (peptide)
peptide: Ac-YSTDPFATSSTDPFSA-NH2
notes: as for B2
